Here are results for 14 sequences from the DeepSol protein solubility set.

A short description of the series: soluble on expression in E. coli; label from the status in PepcDB or PDB records.
As to “MGSDKIHHHHHHGKKKPPPPKSASKMGPPPPAPAPPTAPEAAPAAPTPDAAAAAPAEGEKKDGEKKSEKKDGDKKEEEKKDEEKKDGDKKEDDKKDEKKDEDKKDEKKDADEKKDEEKKDDKKDEKKDEKKDEKKDEKKEKSKKSKKSSKSKKSKKSKREKKDEEKKEDDKKEDDKKDDKKEDEKKDDDKKDDEKNYFW”, the “soluble on expression in E. coli” value is listed as “not soluble”.
To “MPHTSSDVADFKEVRHIRGDINLKPFIAIWEVTRACGLVCQHCRADAQHEPHPEQLTTEQGKQLLSDLASYERPKPLVVLTGGDPFERQDLEELVDYGTSLGLNVSLSPSVTPRLTPERIHRLYELGGKAMSMSLDGATAETHDAFRGFSGTFDTTVKRAADILQAGFRLQINSTLTKSNIREAPALLKTVMGMGAKMWYVFFLVPTGRGAALNALNPQEREDVLHWLADVSDRIAIKTTEAPQYRRVVIQQRLRKEGQLDKYQGGELYRYLTQKTTELLGAHPVQPRRPRPPMAVNSGSGFVFIDHIGDVYPSGFLPIHCGNVKQASIKTIYSQSPTFQALRDPNHWHGKCSVCEFHDVCGGSRSTAYALTGDVRASDPTCVYMPQPWLDAGHSGVED” belongs “not soluble”; to “DIVMTQSHKFMSTSVGDRVSITCKASQDVSTAVAWYQQKPGQSPKLLISWASTRHTGVPDRFTGSGSGTDYTLTISSVQAEDLALYYCQQHYTTPLTFGAGTKLELKRADAAPTVSIFPPSSEQLTSGGASVVCFLNNFYPKDINVKWKIDGSERQNGVLNSWTDQDSKDSTYSMSSTLTLTKDEYERHNSYTCEATHKTSTSPIVKSFNRN”, “soluble”; to “MGHHHHHHSHNTALVLCPFKDSGCKHRCPKLAMARHVEESVKPHLAMMCALVSRQRQELQELRRELEELSVGSDGVLIWKIGSYGRRLQEAKAKPNLECFSPAFYTHKYGYKLQVSAFLNGNGSGEGTHLSLYIRVLPGAFDNLLEWPFARRVTFSLLDQSDPGLAKPQHVTETFHPDPNWKNFQKPGTWRGSLDESSLGFGYPKFISHQDIRKRNYVRDDAVFIRAAVELPRKILS”, “not soluble”.
Next, “EAISLSFEQRGQRRAILRDLSLGLAKGESLVVLGPSGCGKSTLLNILAGFQKPDQGRVQIDGRTLEGPGGERGVVFQDDALMPWLNALDNVALGLRIRGLGKAERTARARQVLQLVGLQEYAEQSVAQLSGGQRQRLGLARALAVEPDFLLLDEPFGALDALTRERMQVLLLDLWKQTGKGLFLITHSVDEALFLATDLVVMDGPPARIVKRLPVDFARRYAAGETVRSIKADPEFGRLRQALLDEFLDVAEA”: “not soluble”.
Next, “MTAPSQVLKIRRPDDWHVHLRDGDMLKTVVPYTSEIYGRAIVMPNLASPITTVDAAIAYRQRILDAVPAGHDFTPLMTCYLTDSLDADELERGFHEGVFTAAKLYPANATTNSSHGVTSVDAIMPVLERMEKLGIPLLVHGEVTHADVDIFDREARFIDTVMEPLRQRLTALKVVFEHITTKDAAQYVRDGNDYLAATITPQHLMFNRNDMLVGGIRPHLYCLPILKRNIHQQALRELVASGFTRAFLGTDSAPHSRHRKETSCGCAGCFNAPSALGSYAAVFEEMNALAHFEAFCSLNGPQFYGLPMNTGWVELVRDEQQIPGNIALADDSLVPFLAGETVRWSVKK”: “not soluble”; “MGSDKIHHHHHHMSKTKEQVVELAQKHGITIQEGSLILNESGLDFQVVFALDVNGKRWVLRLPRREDVVPSTAKEKKTLELIAPHLSVQVPNWEVYSVEMIAYKQLKGVPAATIDHGKKAYVWEMDHTNVSDRFIDTLASGMASLHQIKQDEARRAGVPAEQATEARERMSVRMEKVKSEFGVSEPLWARWQKWLHHDALWPAETGLVHGDLHAGHILIGEQTEVTGFIDWTEAQVTDLSEDFVPHYRIFGEAALNRLIAAYEEAGGYVWPSMKEHVIEREAAFPVAIAEFALKSGIGEYKRMAKEVLGVAE”: “not soluble”.
Take “MTTQTTPAHIAMFSIAAHGHVNPSLEVIRELVARGHRVTYAIPPVFADKVAATGPRPVLYHSTLPGPDADPEAWGSTLLDNVEPFLNDAIQALPQLADAYADDIPDLVLHDITSYPARVLARRWGVPAVSLSPNLVAWKGYEEEVAEPMWREPRQTERGRAYYARFEAWLKENGITEHPDTFASHPPRSLVLIPKALQPHADRVDEDVYTFVGACQGDRAEEGGWQRPAGAEKVVLVSLGSAFTKQPAFYRECVRAFGNLPGWHLVLQIGRKVTPAELGELPDNVEVHDWVPQLAILRQADLFVTHAGAGGSQEGLATATPMIAVPQAVDQFGNADMLQGLGVARKLATEEATADLLRETALALVDDPEVARRLRRIQAEMAQEGGTRRAADLIEAELPARHERQEPVGDRPNVGDRPAGVRSDRQRSAL”: the “soluble on expression in E. coli” value is recorded as “soluble”.
For “ARQVICWCFTLNNPLSPLSLHDSMKYLVYQTEQGEAGNIHFQGYIEMKKRTSLAGMKKLIPGAHFEKRRGTQGEARAYSMKEDTRLEGPWEYGE”, the “soluble on expression in E. coli” value is listed as “soluble”.
In the case of “MAHHHHHHMAILYNRITGLKDSVYGEGLQCRILGLDEIKVFNIRIRPRVLKTMTGTKDLQMVNISLRVLFRPQTDRLPQIYREFGMDYDERILPSISNEILKAVVAEYKAEELIQKRDVVSARIYQLMQSKVSQFGLVLEDLSLVDIQFGKEFMVAVEQKQVAQQEAERFRYVVLENEQKRRAAVVRAEGEAESARLISEAIQRSGGGLLELRRIEAAVDIASKLIPMRNVTFLPGGSNMLLHMKSHQASEQAH”, the “soluble on expression in E. coli” value was “not soluble”.
Regarding “MGSDKIHHHHHHMIAGVPSVHPLPNMNHVEVKGVDLPAQIAQQVRKLINRGTLAPGLQLRQSDLADRFGISRVPVREALKLLAAEGIIEHDPNRGFFVAPLSTDEARQLYRYRFLLERELLKTVEWPDSTQMKALKAMLERLDSYLDSGQRAEWIDEYQDFYALLFDLSPDKILRREAIRLIRLTDRYRALASEVRVPGEQRTAHLEHTLLAAMSKRDRAQLIRGFEREREKILASMLARIDARGL”, the “soluble on expression in E. coli” value was “not soluble”.
Consider “MGSDKIHHHHHHMISATNWVPRGFSSEFPEKYVLDDEEVERINQLAQLNLDDAKATLEEAEGESGVEDDAATGSSNKLKDQLDIDDDLKEYNLEEYDDEEIADNEGGKDVSMFPGLSNDSDVKFHEGEKGEDPYISLPNQEDSQEEKQELQVYPSDNLVLAARTEDDVSYLDIYVYDDGAGFHSSDIPVEEGDEADPDVARGLVRDPALYVHHDLMLPAFPLCVEWLDYKVGSNSEEAANYAAIGTFDPQIEIWNLDCVDKAFPDMILGEPLDNSMVSLKSKKKKKKSKTGHITTHHTDAVLSMAHNKYFRSVLASTSADHTVKLWDLNSGNAARSLASIHSNKNVSSSEWHMLNGSILLTGGYDSRVALTDVRISDESQMSKYWSAMAGEEIETVTFASENIILCGTDSGNVYSFDIRNNENRKPVWTLKAHDAGISTLCSNKFIPGMMSTGAMGEKTVKLWKFPLDDATNTKGPSMVLSRDFDVGNVLTSSFAPDIEVAGTMVIGGVNKVLKLWDVFTNRSVRKSFKSELENVQARAKEEAQKIGKSSRIARKYTSNDNPDTVITIDDQGEDEEEREGGDEHDDMA”, for which the “soluble on expression in E. coli” value is on record as “not soluble”.
To “MSDATYADAVIMEMNGRDIEIVSIKPQTTTGRKPVKTMNRNGRVNGYCDGVTEHKLSVTAAIPIDGTEIDWDNITKAKITIYPINDEDRRTSYLDCFTVDTGEQYEVDNEARIDIEMIALHKIKE” belongs “not soluble”; to “MGSDKIHHHHHHMLHGKVLVAQGGGPTAVINQSMVGAVLESRKFRNVDLVYGAHHGVRGIVNEDFLDLTQETSHNLEMVAQTPSSGLGSTRDKPDLKYCHEIFEVLKAHGIAYFFYIGGNDSSDTVRIVSEEARKAGYPLRCIHIPKTIDNDLVLNDHTPGFPSAARFVAQAFMGVNLDNAALRGIYLAVVMGRHAGFLTAASALGKKFPEDGPHLIYIPERTFRVDSFLTDVKATYDKYGRCVVALSEGIHDEDGAPIITKLSKATEKDAHGNIQLSGTGALSDLLCEEIKGKLGIKRVRGDTFGYLQRSFIGCVSDVDQREAREVGEKAVQFAMWGDQDGSVTIQRTGFYSVDYKLLPLAAVAGKTRVMEDHFIAESGTDVTDSFRMYLRPLLGSGMPDAFRLRLNSVPRILKK”, “not soluble”.
